Results on 8 molecules are retold here after article PMC7437355.

Assay [1] deals with T1, NF1(GRD), neurofibromin GAP-related domain, wild type (ITC), P21359-2.
T1 chain: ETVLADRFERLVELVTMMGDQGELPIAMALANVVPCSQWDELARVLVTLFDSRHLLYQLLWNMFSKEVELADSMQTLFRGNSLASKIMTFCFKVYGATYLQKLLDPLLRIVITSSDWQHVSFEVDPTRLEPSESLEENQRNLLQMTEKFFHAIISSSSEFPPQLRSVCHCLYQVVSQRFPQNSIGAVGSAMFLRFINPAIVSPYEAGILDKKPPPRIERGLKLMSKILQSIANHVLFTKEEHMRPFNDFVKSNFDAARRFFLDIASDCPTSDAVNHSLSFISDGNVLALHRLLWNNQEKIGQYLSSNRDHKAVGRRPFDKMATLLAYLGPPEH
Nature of the assay: ITC. Conditions: chain shown with the change.

In assay [2] the target is NF1(GRD), neurofibromin GAP-related domain, wild type (ITC) (human) (UniProt P21359). Nature of the assay: ITC; MicroCal PEAQ-ITC, 25°C, 19 injections of 2.2 μL; 20 mM HEPES (pH 7.3), 150 mM NaCl, 5 mM MgCl2, 1 mM TCEP; one set of sites model; protein in the cell not given. (In general: In ITC the heat of successive injections is recorded.)
The next assay deals with NF1(GRD) R1250A (human) (UniProt P21359). The description is as above.
In a further assay the target is NF1(GRD) D1217A (human) (UniProt P21359). The assay is described as above.
The target of assay [3] is T2, SPRED1(EVH1), SPRED1(13–125), wild type (ITC), Q7Z699.
T2 chain: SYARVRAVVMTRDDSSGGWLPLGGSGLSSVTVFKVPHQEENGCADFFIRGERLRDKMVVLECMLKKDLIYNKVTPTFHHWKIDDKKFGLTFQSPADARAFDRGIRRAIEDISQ
The assay is described as follows: ITC. Particulars: chain shown with the change.

Residue numbers refer to the chain shown, from its start. Names and notes keep the numbering of the source. Bounds are passed on as bounds.

B1: SPRED1(EVH1), SPRED1(13–125), wild type (ITC), Q7Z699 R24Q (protein)
chain: T2 chain with R12Q
B1: the dissociation constant Kd – broadly, a measure of binding affinity in units of concentration – in assay [1] was determined as 4 µM. In other words, the single-digit micromolar range.

B2: SPRED1(13–125) S105D, purified phosphomimetic (domain or fragment)
chain: T2 chain with S93D
In turn, B2 registered a fold weaker affinity than wild-type SPRED1 in assay [2] of 10 fold.

B3: SPRED1(EVH1), SPRED1(13–125), wild type (ITC), Q7Z699 G30R (protein)
chain: T2 chain with G18R
B3 returned a Kd in assay [1] of 33.7 µM.

B4: SPRED1(13–125) R24Q (domain or fragment)
chain: T2 chain with R12Q
Take B4: in assay [2], the fold weaker binding than wild-type SPRED1 is 20 fold.

B5: SPRED1(EVH1), SPRED1(13–125), wild type (ITC) (domain or fragment)
chain: T2 chain
In the case of B5, in the assay with NF1(GRD) R1250A (human), the fold reduced binding against wild-type NF1(GRD) worked out at 5 fold. For the same molecule, the fold weaker affinity than wild-type NF1(GRD) with NF1(GRD) D1217A (human) was above 50 fold. Besides, the Kd in assay [2] turned out to be 0.224 µM.

B6: SPRED1(13–125) G30R (domain or fragment)
chain: T2 chain with G18R
For the molecule B6, the fold weaker binding than wild-type SPRED1 (printed as decrease in KD) in assay [2] is above 100 fold.

B7: NF1(GRD), neurofibromin GAP-related domain, wild type (ITC), P21359-2 D1217A (protein)
chain: T1 chain with D20A
As for B7, the Kd in assay [3] came to 14 µM.

B8: NF1(GRD), neurofibromin GAP-related domain, wild type (ITC), P21359-2 R1250A (protein)
chain: T1 chain with R53A
On to B8, for which the Kd in assay [3] turned out to be 1.08 µM.
